To fix the notation:
B1: isolated SLAMF6^var3 ectodomain (seSLAMF6^var3), human, C-terminal 6-histidine tag (receptor)
chain: GNVVSVPHETKSPEIHVTNPKQGKRLNFTQSYSLQLSNLKMEDTGSYRAQISTKTSAKLSSYTLRILRQLRNIQVTNHSQLFQNMTCELHLTCSVEDADDNVSFRWEALGNTLSSQPNLTVSWDPRISSEQDYTCIAENAVSNLSFSVSAQKLCEDVKIQYTDTKMGSHHHHHH
notes: Expressed in HEK293 cells and purified on a Ni column (Novoprotein/BonOpus); The N-terminus is heterogeneous; also called seSLAMF6-V3; soluble ectodomain of SLAMF6^var3
B2: isolated ectodomain of SLAMF6^var1 containing a 6-histidine tag (Prospec, seSLAMF6) (receptor)
chain: QSSLTPLMVNGILGESVTLPLEFPAGEKVNFITWLFNETSLAFIVPHETKSPEIHVTNPKQGKRLNFTQSYSLQLSNLKMEDTGSYRAQISTKTSAKLSSYTLRILRQLRNIQVTNHSQLFQNMTCELHLTCSVEDADDNVSFRWEALGNTLSSQPNLTVSWDPRISSEQDYTCIAENAVSNLSFSVSAQKLCEDVKIQYTDTKM
notes: Bought reagent; Only the ectodomain stood in the assay; also called isolated SLAMF6^var1 ectodomain; not shown: 6-histidine tag
B3: Fc-fused ectodomain of SLAMF6^var1 (seSLAMF6_Fc, Creative Biomart) (Fc fusion)
chain: B2 chain
notes: Bought reagent, coated on the plate at 1 ug/ml; Only the ectodomain stood in the assay; also called full length seSLAMF6-Fc; SLAMF6^var1 ectodomain (Fc-conjugated); not shown: Fc portion
B4: isolated ectodomain of SLAMF7 containing a 6-histidine tag (seSLAMF7) (receptor, UniProt Q9NQ25 23-226, looked up)
chain: SGPVKELVGSVGGAVTFPLKSKVKQVDSIVWTFNTTPLVTIQPEGGTIIVTQNRNRERVDFPDGGYSLKLSKLKKNDSGIYYVGIYSSSLQQPSTQEYVLHVYEHLSKPKVTMGLQSNKNGTCVTNLTCCMEHGEEDVIYTWKALGQAANESHNGSILPISWRWGESDMTFICVARNPVSRNFSSPILARKLCEGAADDPDSSM
notes: extracellular domain; not shown: 6-histidine tag

Common to all, as to assay: ELISA, seSLAMF6-Fc coated on the plate, anti-His-HRP detection
For assay [1], the target named is B3. On the procedure:
(§1) FIG. 11. seSLAMF6-V3 binding to full length seSLAMF6-Fc using ELISA. seSLAMF6-Fc was pre-coated to MaxiSorb plate. Soluble ectodomains from various SLAM family members (seSLAMF6, seSLAMF6-V3, seSLAMF1, seSLAMF7 and seSLAMF8, all containing 6-Histidine tags) were then added. An anti- Histidine antibody was used for detection.
(§2) MaxiSorb plates were pre-coated overnight with an Fc-fused ectodomain of SLAMF6^var1 (seSLAMF6_Fc, Creative Biomart, at 1 μg/ml and 4° C.). On the next day, the plate was washed and blocked using blocking buffer containing 1% BSA in PBSX1. Next, the plate was incubated for two hours with different concentrations of isolated ectodomains (containing 6-histidine tags) from SLAMF6^var1 (Prospec, seSLAMF6) or SLAMF6^var3 (Novoprotein/Bonopus, seSLAMF6-V3), or from SLAMF1, SLAMF7 or SLAMF8 (seSLAMF1, seSLAMF7 and seSLAMF8, respectively). The amount of receptor-bound ectodomain polypeptides was detected using horseradish peroxidase (HRP)-conjugated antibodies directed to the histidine tag (anti-HIS Abs) and quantified using an ELISA reader.

Assay [2] deals with T1, isolated ectodomain of SLAMF1 containing a 6-histidine tag (seSLAMF1) (UniProt Q13291 21-237, limits assumed).
T1 construct: extracellular domain; not shown: 6-histidine tag
T1 sequence (looked up): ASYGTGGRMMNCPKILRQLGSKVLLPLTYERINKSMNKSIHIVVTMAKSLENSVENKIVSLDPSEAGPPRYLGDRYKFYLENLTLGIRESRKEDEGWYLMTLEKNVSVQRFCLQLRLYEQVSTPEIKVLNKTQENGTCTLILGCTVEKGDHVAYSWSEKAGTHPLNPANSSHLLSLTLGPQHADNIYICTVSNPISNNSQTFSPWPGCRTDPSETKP
On the procedure: as §1, §2

The target of assay [3] is T2, isolated ectodomain of SLAMF8 containing a 6-histidine tag (seSLAMF8) (UniProt Q9P0V8 23-233, limits assumed).
T2 construct: extracellular domain; not shown: 6-histidine tag
On the procedure: as §1, §2

T2 sequence (Q9P0V8 23-233 limits assumed): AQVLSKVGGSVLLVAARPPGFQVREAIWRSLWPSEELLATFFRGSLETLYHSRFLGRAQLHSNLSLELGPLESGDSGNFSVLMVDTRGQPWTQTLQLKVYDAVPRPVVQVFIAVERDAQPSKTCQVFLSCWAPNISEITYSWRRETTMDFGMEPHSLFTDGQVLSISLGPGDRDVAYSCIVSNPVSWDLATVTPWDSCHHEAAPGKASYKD

For the molecule B1, in assay [1], the binding result was “binds”. Turning to B2, the binding result in assay [1] is reported as “binds”. Take B3: the binding result in assay [2] and in assay [3] was “no binding” throughout. As for B4, the binding result in assay [1] is recorded as “no binding”.

Values taken from US20210054043A1 (HADASIT MEDICAL RESEARCH SERVICES AND DEVELOPMENT, published 2021).
